Assay results published in patent EP1313846B1.

Biological target: Savinase® (subtilisin 309) (UniProt P29600)
Assay: cell-based or functional assay

Chain of UniProt P29600 (P29600 whole entry): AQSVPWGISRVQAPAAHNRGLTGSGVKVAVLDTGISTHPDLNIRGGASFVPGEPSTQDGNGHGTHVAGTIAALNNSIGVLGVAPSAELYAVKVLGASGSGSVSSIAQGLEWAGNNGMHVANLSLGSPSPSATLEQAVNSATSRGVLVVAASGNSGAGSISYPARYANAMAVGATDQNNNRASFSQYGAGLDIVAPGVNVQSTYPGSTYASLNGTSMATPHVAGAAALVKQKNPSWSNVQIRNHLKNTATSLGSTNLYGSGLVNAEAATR

trypsin inhibitor type IV-0 (Ovo-inhibitor), Sigma T-1886 (from UniProt P10184 69-517)
RA (%) (Residual Activity, Ovo-inhibition Assay; hydrolysis of Suc-Ala-Ala-Pro-Phe-pNA with and without inhibitor): < 5%
